{
  "source": "paper PMC6612188",
  "key": {"[1]": {"target": "T1, VraR (unphosphorylated) (Staphylococcus aureus) (UniProt Q7A2Q1)", "T1 sequence": "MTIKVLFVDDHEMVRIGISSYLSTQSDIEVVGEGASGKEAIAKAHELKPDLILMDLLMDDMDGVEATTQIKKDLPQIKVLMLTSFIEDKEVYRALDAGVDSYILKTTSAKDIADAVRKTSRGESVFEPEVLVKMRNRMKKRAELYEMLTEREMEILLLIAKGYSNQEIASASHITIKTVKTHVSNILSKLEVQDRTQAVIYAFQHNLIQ", "experiment": "DNase I footprinting", "settings": "10 mM Tris pH 7.5, 50 mM KCl, 1 mM DTT, 10 mM MgCl2, 50% glycerol, 20 ng/ul herring sperm DNA; 2 ng amplicon; protein 0-50 uM; temperature not stated"}, "[2]": {"target": "T2, VraRM13A (unphosphorylated) M13A (Staphylococcus aureus) (UniProt Q7A2Q1)", "T2 sequence": "T1 sequence with M13A", "experiment": "DNase I footprinting", "settings": "10 mM Tris pH 7.5, 50 mM KCl, 1 mM DTT, 10 mM MgCl2, 50% glycerol, 20 ng/ul herring sperm DNA; 2 ng amplicon; protein 0-50 uM; temperature not stated"}},
  "note": "Numbering of substitutions follows the chain as printed.",
  "data": [
    {"sequence": "TGAAATGACGCATTGATTGTGTTCTTAATTATTATAAAACAGTTCCGAAACCAATATGAATAGGCTCCGGAACTAAATGATGTTCATACTTTAGTCTTAGTATATGTTGAACTATTCTTCTTCAATCTTTGTCGTTAAAATCGGACCAAGCTTCGT (double strand) [PvraSR (-121 to +26)]", "values": [
      {"measurement": "binding", "setting": "[1]", "result": "binds"},
      {"measurement": "binding", "setting": "[2]", "result": "binds more weakly"}
    ]}
  ]
}
